Experimental data reported in US20140377284A1 (BIOCEROX PRODUCTS B V, published 2014).
One block for each binder: values may come before it.

Experiments:
[1] = target: T1, human CD134 (full-length, on cells) (human, UniProt P43489 29-277); experiment: flow cytometry, OX40L 10.0 µg/mL with anti-polyhistidine antibody
T1 construct: also called OX40; TNFRSF4
T1 sequence: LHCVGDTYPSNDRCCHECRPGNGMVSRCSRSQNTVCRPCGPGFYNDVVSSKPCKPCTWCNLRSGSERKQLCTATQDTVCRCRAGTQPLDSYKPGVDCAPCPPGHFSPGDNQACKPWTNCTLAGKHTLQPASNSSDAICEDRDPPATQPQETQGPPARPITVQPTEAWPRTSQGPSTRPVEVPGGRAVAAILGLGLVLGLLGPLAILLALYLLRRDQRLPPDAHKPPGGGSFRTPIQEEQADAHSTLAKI
Description: PHA-stimulated (at 10 μg/mL for 1 day; see above) human CD134 expressing T lymphocytes were generated. […] After extensive washing in PBS/BSA/NaN₃, cells were fixed in 2% formaldehyde in PBS/BSA/NaN₃ for 30 minutes at 4° C.

[2] = target: T2, recombinant human CD134:human Fcγ (IgG1) fusion protein (human, UniProt P01857-1 100-330 = IgG part, limits assumed); experiment: ELISA, plate-bound CD134:Fc 50 ng/well
T2 construct: domain: Fcγ (IgG1); Bought (R&D Systems); also called rhuCD134
Description: Ninety six-wells flat-bottom ELISA plates (Corning) were coated with 50 ng/well recombinant human CD134:human Fcγ (IgG1) fusion protein (R&D Systems) in PBS o/n at 4° C. After extensive washing in PBS/0.05% Tween 20, plates were blocked in PBS/0.05% Tween 20/1% BSA fraction V (Roche) for 1 hour at RT. […] After extensive washing in PBS/0.05% Tween 20, binding of antibodies was determined with 1:5000 diluted horseradish peroxidase-conjugated goat anti-mouse (Fcγ specific) antibodies (Jackson ImmunoResearch) or with 1:4000 diluted horseradish peroxidase-conjugated goat anti-human κ-specific antibodies (Southern Biotech) for 1 hour at RT, followed by a ready-to-use solution of TMB substrate (Invitrogen) for colorimetric detection. After adding 1 M H₂SO₄, optical densities were measured at, a wavelength of 450 nm (reference wavelength of 655 nm) using a microplate reader (BioRad).

[3] = target: T1, human CD134 (full-length, on cells); experiment: flow cytometry, stable CD134 293-F clone no. 5
Description: (§1) Full-length human CD134 (SEQ ID NO. 1) was re-cloned in a pcDNA3.1-derived expression plasmid (see Example 11 (d) below). […] After extensive washing in PBS/BSA/NaN₃, cells were subsequently incubated with 1:200 diluted PE-conjugated goat anti-mouse IgG (Fcγ specific) antibodies (Jackson ImmunoResearch) or with 1:200 diluted PE-conjugated goat anti-human IgG (Fcγ specific) antibodies (Jackson ImmunoResearch) for 30 minutes at 4° C. After extensive washing in PBS/BSA/NaN₃, cells were fixed in 2% formaldehyde in PBS/BSA/NaN₃ for 30 minutes at 4° C. Binding of antibodies was measured using flow cytometry (FACSCalibur; BD Biosciences).

[4] = target: T3, truncated human CD134 'CRD4' construct (human, UniProt P43489 127-277); experiment: flow cytometry, transiently transfected 293-F cells, 20.0 µg/mL
T3 construct: also called truncated human CD134 variant that lacked CRD1-CRD2-truncated CRD3 A1-module
T3 sequence: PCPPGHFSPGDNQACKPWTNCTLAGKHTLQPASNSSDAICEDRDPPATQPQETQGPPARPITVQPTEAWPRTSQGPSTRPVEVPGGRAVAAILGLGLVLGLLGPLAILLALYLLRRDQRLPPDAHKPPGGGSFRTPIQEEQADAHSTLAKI
Description: (§2) After 48 h, surface human CD134 expression on transfected cells was analyzed by FACS analysis. To this end, transfected cells were harvested and put at 1-2×10⁶ cells/mL in ice-chilled PBS/BSA/NaN₃ supplemented with 50 μg/mL purified human IgG (Sigma; blocking Fey receptors). […] After extensive washing in PBS/BSA/NaN₃, cells were subsequently incubated with 1:200 diluted PE-conjugated goat anti-mouse IgG (Fcγ specific) antibodies (Jackson ImmunoResearch) or with 1:200 diluted PE-conjugated goat anti-human IgG (Fcγ specific) antibodies (Jackson ImmunoResearch) for 30 minutes at 4° C. […] After extensive washing in PBS/BSA/NaN₃, cells were subsequently incubated with 1:200 diluted PE-conjugated goat anti-mouse IgG (Fcγ specific) antibodies (Jackson ImmunoResearch) for 30 minutes at 4° C. After extensive washing in PBS/BSA/NaN₃, cells were fixed in 2% formaldehyde in PBS/BSA/NaN₃ for 30 minutes at 4° C. Binding of antibodies was measured using flow cytometry (FACSCalibur; BD Biosciences).

[5] = target: T4, truncated human CD134 'CRD3' construct (human, UniProt P43489 108-277); experiment: as above
T4 construct: also called truncated human CD134 variant that lacked CRD1-CRD2
T4 sequence: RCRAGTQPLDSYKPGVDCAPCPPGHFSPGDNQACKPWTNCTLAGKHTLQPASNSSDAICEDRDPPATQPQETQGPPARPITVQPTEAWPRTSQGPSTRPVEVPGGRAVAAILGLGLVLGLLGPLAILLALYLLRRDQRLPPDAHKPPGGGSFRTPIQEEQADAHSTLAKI
Description: as §2

[6] = target: T5, human fibronectin-derived control peptide (extra type III structural domain) (human); experiment: peptide ELISA
T5 construct: Synthesized by Pepscan Presto; coated on ELISA plates
T5 peptide: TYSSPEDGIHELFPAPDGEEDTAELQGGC
Description: (§3) After adding 1 M […], optical densities was measured at a wavelength of 450 nm (reference wavelength of 655 nm) using a microplate reader (BioRad).
(§4) Ninety six-wells flat-bottom ELISA plates (Corning) were coated with 10 ng/well human CD134-derived peptide (synthesized by Pepscan Presto, Lelystad, The Netherlands), which corresponded to amino acid sequence of truncated CRD3 A1-module-CRD4 subdomain A1 module (see SEQ ID NO. 38) or with 10 ng/well human fibronectin-derived control peptide (synthesized by Pepscan Presto, Lelystad, The Netherlands), which corresponded to amino acid sequence of extra type III structural domain (see SEQ ID NO. 37) in PBS o/n at 4° C. After extensive washing in PBS/0.05% Tween 20, plates were blocked in PBS/0.05% Tween 20/1% BSA fraction V (Roche) for 1 hour at RT. […] After extensive washing in PBS/0.05% Tween 20, binding of antibodies was determined with 1:5000 diluted horseradish peroxidase-conjugated goat anti-human IgG Fcγ-specific antibodies (Jackson ImmunoResearch) for 1 hour at RT, followed by a ready-to-use solution of TMB substrate (Invitrogen) for colorimetric detection. After adding 1 M H₂SO₄, optical densities was measured at a wavelength of 450 nm (reference wavelength of 655 nm) using a microplate reader (BioRad).

[7] = target: T6, human CD134-derived peptide (truncated CRD3 A1-module-CRD4 subdomain A1-module) (human); experiment: peptide ELISA, 10 ng/well peptide coated
T6 construct: Synthesized by Pepscan Presto; coated on ELISA plates
T6 peptide: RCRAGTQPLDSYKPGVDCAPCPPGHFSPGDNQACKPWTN
Description: as §3, §4

[8] = target: T1, human CD134 (full-length, on cells); experiment: flow cytometry, stable CD134 293-F clone no. 23
Description: as §1

[9] = target: T2, recombinant human CD134:human Fcγ …; experiment: competition ELISA, plate-bound CD134:Fc; competitor biotinylated mouse 12H3 at 20 ng/mL
Description: Ninety six-wells flat-bottom ELISA plates (Corning) were coated with 50 ng/well recombinant human CD134:human Fcγ (IgG1) fusion protein (R&D Systems) in PBS o/n at 4° C. After extensive washing in PBS/0.05% Tween 20, plates were blocked in PBS/0.05% Tween 20/1% BSA fraction V (Roche) for 1 hour at RT. […] After adding 1 M H₂SO₄, optical densities were measured at a wavelength of 450 nm (reference wavelength of 655 nm) using a microplate reader (BioRad).

[10] = target: T7, truncated human CD134 'truncated (tc) CRD4' construct (human, UniProt P43489 147-277); experiment: flow cytometry, transiently transfected 293-F cells (parental 12H3: binding completely absent on tcCRD4)
T7 construct: also called truncated CRD4
T7 sequence: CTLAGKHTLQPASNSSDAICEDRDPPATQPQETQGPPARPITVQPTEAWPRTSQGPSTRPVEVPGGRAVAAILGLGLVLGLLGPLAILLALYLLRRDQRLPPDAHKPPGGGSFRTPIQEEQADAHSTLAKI
Description: After 48-72 h, surface human CD134 expression on transfected cells was analyzed by FACS analysis. To this end, transfected cells were harvested and put at 1-2×10⁶ cells/mL in ice-chilled PBS/BSA/NaN₃. […] After extensive washing in PBS/BSA/NaN₃, cells were subsequently incubated with 1:200 diluted PE-conjugated goat anti-human IgG (Fcγ specific) antibodies (Jackson ImmunoResearch) for 30 minutes at 4° C. After extensive washing in PBS/BSA/NaN₃, cells were fixed in 2% formaldehyde in PBS/BSA/NaN₃ for 30 minutes at 4° C. Binding of antibodies was measured using flow cytometry (FACSCalibur; BD Biosciences).

[11] = target: T1, human CD134 (full-length, on cells); experiment: competition flow cytometry, stable CD134 293-F clone no. 5; competitor biotinylated mouse 12H3 at 700 ng/mL
Description: Full-length human CD134 (SEQ ID NO1) was re-cloned in a pcDNA3.1-derived expression plasmid (see Example 11 (c) above). […] After extensive washing in PBS/BSA/NaN₃, cells were fixed in 2% formaldehyde in PBS/BSA/NaN₃ for 30 minutes at 4° C.

[12] = target: T1, human CD134 (full-length, on cells); experiment: flow cytometry, PHA-stimulated human CD4+ T lymphocytes (data not shown)
Description: PHA-stimulated (at 10 μg/mL for 1 day; see above) human CD134 expressing T lymphocytes were generated. […] After extensive washing in PBS/BSA/NaN₃, cells were subsequently incubated with 1:50 diluted FITC-conjugated mouse anti-human IgG4 antibodies (Sigma) for 30 minutes at 4° C. […] After extensive washing in PBS/BSA/NaN₃, cells were fixed in 2% formaldehyde in PBS/BSA/NaN₃ for 30 minutes at 4° C. Binding of antibodies was measured using flow cytometry (FACSCalibur; BD Biosciences).

- binding result [1]: binds
B1: polyhistidine-tagged recombinant human OX40 ligand (ligand, UniProt P23510 51-183, looked up)
chain: QVSHRYPRIQSIKVQFTEYKKEKGFILTSQKEDEIMKVQNNSVIINCDGFYLISLKGYFSQEVNISLHYQKDEEPLFQLKKVRSVNSLMVASLTYKDKVYLNVTTDNTSLDDFHVNGGELILIHQNPGEFCVL
notes: Bought; used together with mouse anti-polyhistidine antibody (clone AD1.1.10); also called CD252; not shown: polyhistidine tag

- EC50 [2]: ~0.15 µg/mL
- binding result [3]: binds
- binding result [4]: binds
- binding result [5]: binds
B2: humanized IgG4κ anti-human CD134 antibody clone 20E5 version 20E5_VL1VH1 (antibody, V domains shown)
VH: QVQLVQSGAEVKKPGASVKVSCKASGYTFTSYVMHWVRQAPGQRLEWMGYINPYNDGTKYNEKFKGRVTITSDTSASTAYMELSSLRSEDTAVYYCANYYGSSLSMDYWGQGTLVTVSS
VL: DIQMTQSPSSLSASVGDRVTITCRASQDISNYLNWYQQKPGKAPKLLIYYTSRLHSGVPSRFSGSGSGTDYTLTISSLQPEDFATYYCQQGNTLPWTFGQGTKVEIKR
notes: Stabilized human IgG4 (Angal et al.)/κ; also called 20E5_VL1H1; VL1H1

- binding result [6]: no binding (tested: 50.0 µg/mL)
- EC50 [2]: ~0.1 µg/mL
- binding result [7]: binds
- EC50 [8]: > 0.2 µg/mL
- IC50 [9]: ~0.75 µg/mL
- binding result [10]: no binding (tested: 20.0 µg/mL)
- IC50 [11]: ~3.5 µg/mL
B3: chimeric human IgG4κ anti-human CD134 antibody clone 12H3 (antibody, V domains shown)
VH: EVQLQQSGPELVKPGASVKISCKTSGYTFKDYTMHWVKQSHGKSLEWIGGIYPNNGGSTYNQNFKDKATLTVDKSSSTAYMEFRSLTSEDSAVYYCARMGYHGPHLDFDVWGAGTTVTVSP
VL: DIVMTQSHKFMSTSLGDRVSITCKASQDVGAAVAWYQQKPGQSPKLLIYWASTRHTGVPDRFTGGGSGTDFTLTISNVQSEDLTDYFCQQYINYPLTFGGGTKLEIKR
notes: Murine V-regions linked to human IgG4 and human kappa constant regions; also called chimeric 12H3 (human IgG4/κ)

- binding result [10]: no binding (tested: 20.0 µg/mL)
B4: chimeric human IgG1κ anti-human CD134 monoclonal antibody clone 12H3 (antibody, V domains shown)
VH: B3 VH
VL: B3 VL
notes: Human IgG1/kappa constant regions

- EC50 [2]: ~0.1 µg/mL
- EC50 [12]: ~1 µg/mL
B5: chimeric human IgG4κ anti-human CD134 antibody clone 20E5 (antibody, V domains shown)
VH: EVQLQQSGPELVKPGASVKMSCKASGYTFTSYVMHWVKQKPGQGLEWIGYINPYNDGTKYNEKFKGKATLTSDKSSSTAYMELSSLTSEDSAVYYCANYYGSSLSMDYWGQGTSVTVSS
VL: DIQMTQTTSSLSASLGDRVTISCRASQDISNYLNWYQQKPDGTVKLLIYYTSRLHSGVPSRFSGSGSGTDYSLTISNLEQEDIATYFCQQGNTLPWTFGGGTKLEIKR
notes: Murine V-regions linked to human IgG4 and human kappa constant regions
